Results taken from US20250057918A1 (YALE UNIVERSITY, published 2025).

Key:
[1] = target: T1, mouse IL-18BP (amino acids 31-194) (mouse, UniProt Q9Z0M9 29-193, biotinylated on the AviTag (BirA ligase)); test: on-yeast isotherms; KD IL-18BP / KD IL-18Rα (10 µM used for NBD); on-yeast isotherms; 10 µM put in for NBD
T1 construct: Secreted decoy receptor; made in Expi293 cells (H7 signal peptide); the stated range is the same as for the human protein; also called mIL-18BP
T1 sequence: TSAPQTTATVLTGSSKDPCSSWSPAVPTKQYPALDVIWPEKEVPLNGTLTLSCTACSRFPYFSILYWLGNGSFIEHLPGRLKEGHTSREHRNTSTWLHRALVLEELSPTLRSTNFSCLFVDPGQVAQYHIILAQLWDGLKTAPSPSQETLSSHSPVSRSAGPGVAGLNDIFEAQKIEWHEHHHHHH

[2] = target: T1, mouse IL-18BP (amino acids 31-194); test: SPR; KD IL-18BP / KD IL-18Rα; SPR; ratio of two KDs
Method: By contrast, very little binding is observed with the same variants and mIL-18BP (right). (FIG. 11B) Representative surface plasmon resonance sensorgrams between immobilized biotinylated mIL-18BP and the murine DR-IL-18 variants.
(§1) Experiments were conducted using a Biacore™ T100 (Protein analysis interaction system) and carried out at 25° C. Biotinylated IL-18Rα or TL-18BP were immobilized onto a Biacore™ biotin capture chip (Series S CAP sensor chip, GE Healthcare) to yield an Rmax of ˜50 RU (IL-18Rα) or ˜10 RU (IL-18BP). Measurements were made with serial dilutions of the IL-18 variants in HEPES buffered Saline-P+ buffer (10 mM HEPES pH 7.4, 150 mM NaCl, 0.005% surfactant P20). The surface was regenerated by three 60-see injections of regeneration buffer (3/4 (v/v) 8M guanidine hydrochloride with 1/4 (v/v) 1M sodium hydroxide). Experiments were performed in multiple channels simultaneously for increased observations. All data were analyzed with the Biacore™ T100 evaluation software version 2.0 with a 1:1 Langmuir binding model.

[3] = target: T2, mouse IL-18Rα ectodomain (amino acids 19-329) (mouse, UniProt Q61098 19-329, biotinylated on the AviTag (BirA ligase)); test: flow cytometry, mIL-18Rα titrated on yeast-displayed murine IL-18 variant (binding isotherm, %Max)
T2 construct: range 19-329; Secreted from Expi293 cells (H7 signal peptide); also called mIL-18Rα; Ra
T2 sequence: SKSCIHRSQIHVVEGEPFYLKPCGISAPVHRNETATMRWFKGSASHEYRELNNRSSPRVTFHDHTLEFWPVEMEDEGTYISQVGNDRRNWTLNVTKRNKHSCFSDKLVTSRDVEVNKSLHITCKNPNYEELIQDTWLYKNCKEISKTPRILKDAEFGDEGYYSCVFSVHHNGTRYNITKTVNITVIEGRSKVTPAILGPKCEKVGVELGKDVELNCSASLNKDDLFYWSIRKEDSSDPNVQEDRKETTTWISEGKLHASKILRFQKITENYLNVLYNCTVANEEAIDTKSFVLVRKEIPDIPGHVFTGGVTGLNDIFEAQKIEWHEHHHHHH

[4] = target: T3, human IL-18BP (amino acids 31-194) (human, UniProt O95998 31-194, biotinylated on the AviTag (BirA ligase) where immobilized or used for staining); test: on-yeast isotherms; KD IL-18BP / KD IL-18Rα (20 µM used for NBD)
T3 construct: Secreted decoy receptor; made in insect cells (gp67 signal peptide); also called hIL-18BP
T3 sequence: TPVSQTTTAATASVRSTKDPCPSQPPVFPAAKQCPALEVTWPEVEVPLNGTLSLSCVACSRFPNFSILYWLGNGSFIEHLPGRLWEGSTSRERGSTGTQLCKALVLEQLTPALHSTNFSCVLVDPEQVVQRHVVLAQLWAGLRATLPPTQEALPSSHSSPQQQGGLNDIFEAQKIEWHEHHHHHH

[5] = target: T4, IL-18 receptor (IL-18R) on HEK-Blue IL-18 reporter cells (UniProt Q13478 19-541; O95256 20-599, limits assumed); test: cell-based or functional assay
T4 sequence (looked up) 1: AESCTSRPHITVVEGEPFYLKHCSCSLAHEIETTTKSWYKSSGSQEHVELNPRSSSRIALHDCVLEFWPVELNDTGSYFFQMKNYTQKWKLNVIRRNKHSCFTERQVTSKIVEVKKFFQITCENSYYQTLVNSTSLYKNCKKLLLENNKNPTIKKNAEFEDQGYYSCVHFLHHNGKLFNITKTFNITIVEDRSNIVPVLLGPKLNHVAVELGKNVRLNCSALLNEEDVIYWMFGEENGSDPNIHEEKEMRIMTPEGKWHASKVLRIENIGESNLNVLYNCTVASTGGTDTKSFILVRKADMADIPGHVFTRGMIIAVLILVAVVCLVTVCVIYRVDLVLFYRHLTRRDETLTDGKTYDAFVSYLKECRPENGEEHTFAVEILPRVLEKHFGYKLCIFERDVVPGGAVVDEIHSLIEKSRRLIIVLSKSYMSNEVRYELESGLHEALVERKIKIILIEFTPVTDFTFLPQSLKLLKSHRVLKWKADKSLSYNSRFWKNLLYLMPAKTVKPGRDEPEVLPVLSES
T4 sequence (looked up) 2: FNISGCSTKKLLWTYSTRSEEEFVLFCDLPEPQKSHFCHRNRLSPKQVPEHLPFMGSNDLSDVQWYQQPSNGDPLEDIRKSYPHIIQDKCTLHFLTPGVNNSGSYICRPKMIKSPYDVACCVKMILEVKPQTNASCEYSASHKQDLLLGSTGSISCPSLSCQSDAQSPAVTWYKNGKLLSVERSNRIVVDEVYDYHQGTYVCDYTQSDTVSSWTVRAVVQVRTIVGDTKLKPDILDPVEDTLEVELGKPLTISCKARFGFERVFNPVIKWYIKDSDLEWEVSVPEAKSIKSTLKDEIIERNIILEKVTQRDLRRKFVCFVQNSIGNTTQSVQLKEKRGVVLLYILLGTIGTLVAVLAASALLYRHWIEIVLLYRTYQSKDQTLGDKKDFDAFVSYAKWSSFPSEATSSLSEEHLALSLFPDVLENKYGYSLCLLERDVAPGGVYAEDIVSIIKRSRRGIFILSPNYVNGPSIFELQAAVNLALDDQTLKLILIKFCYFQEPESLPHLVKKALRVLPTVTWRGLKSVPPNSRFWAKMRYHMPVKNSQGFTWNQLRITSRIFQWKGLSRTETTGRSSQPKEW

[6] = target: T3, human IL-18BP (amino acids 31-194); test: SPR; KD BP / KD Ra normalized to WT IL-18
[7] = target: T3, human IL-18BP (amino acids 31-194); test: on-yeast isotherms; KD IL-18BP / KD IL-18Rα; on-yeast isotherms; ratio of two KDs
[8] = target: T3, human IL-18BP (amino acids 31-194); test: SPR; KD IL-18BP / KD IL-18Rα; SPR; ratio of two KDs
Method: as §1
To additionally characterize the receptor binding activities of the DR-IL-18 variants, the cytokines were expressed recombinantly and surface plasmon resonance for IL-18Rα and IL-18BP was performed (see FIG. 5B for representative traces).

B1: mB1 (ligand)
chain: HFGRLHCTTAVIRNINDQVLFVDKRQPVFEDMTDIDQSASEPQTRLIIYGYADSDARAKAVTLSVKDSKMSTLSCKNKIISFEEMDPPENIDDIQSDLIFFQKSVPGHNKMEFESSLYEGHFLACQKEDDAFKLILKKKDENGDKSVMFTVTNLHQS
notes: recombinant with C-terminal hexahistidine tag in SPR
KD ratio: IL-18BP/IL-18Rα [1]: > 559 | KD ratio: IL-18BP/IL-18Rα [2]: 21000 | EC50 (read off the curve) [3]: ~20 nM

B2: mC1 (ligand)
chain: NFGRLHCTTAVIRNINDQVLFVDKRQPVFEDMTDIDQSASEPQTRLIIYAYVDRRLRGKAVTLSVKDSKMSTLSCKNKIISFEEMDPPENIDDIQSDLIFFQKKVPGHNKMEFESSLYEGHFLACQKEDDAFKLILKKKDENGDKSVMFTLTNLHQS
notes: as for B1
KD ratio: IL-18BP/IL-18Rα [1]: > 233 | KD ratio: IL-18BP/IL-18Rα [2]: 26300

B3: mCS1 (ligand)
chain: NFGRLHCTTAVIRNINDQVLFVDKRQPVFEDMTDIDQSASEPQTRLIIYGYADSRVRGKAVTLSVKDSKMSTLSCKNKIISFEEMDPPENIDDIQSDLIFFQKRVPGHNKMEFESSLYEGHFLACQKEDDAFKLILKKKDENGDKSVMFTLTNLHQS
notes: as for B1
KD ratio: IL-18BP/IL-18Rα [1]: > 935 | KD ratio: IL-18BP/IL-18Rα [2]: 7040 | EC50 (read off the curve) [3]: ~10 nM

B4: 6-12 (ligand)
chain: YFGKLESKLSVIRNLNDQVLFIDQGNRPLFEDMTDSDCRDNAPRTIFIISKYSDSLARGLAVTISVKCEKISTLSCENKIISFKEMNPPDNIKDTKSDIIFFQRDVPGHSRKMQFESSSYEGYFLACEKERDLFKLILKKEDELGDRSIMFTVQNED
notes: recombinant with C-terminal hexahistidine tag in SPR and cell assays; also called h6-12; version 2.0 human DR-IL-18 variant
KD ratio: IL-18BP/IL-18Rα [4]: 1200 | EC50 (read off the curve); HEK-Blue IL-18 SEAP reporter, OD 655 nM [5]: ~0.6 nM | IL-18 BP:Ra Dissociation Constant Ratio [6]: > 9.32e+06

B5: hA8 (ligand)
chain: YFGKLESRLSVIRNLNDQVLFIDQGNRPLFEDMTDSDCRDNAPRTIFIISKYKDKQPRAQAVTISVKCEKISTLSCENKIISFKEMNPPDNIKDTKSDIIFFQRDVPGHKHKMQFESSSYEGYFLACEKERDLFKLILKKEDELGDRSIMFTIQNED
notes: also called human DR-IL-18 variant A8
KD ratio: IL-18BP/IL-18Rα [4]: > 347

B6: 6-31 (ligand)
chain: YFGKLESKLSVIRNLNDQVLFIDQGNRPLFEDMTDSDCRDNAPRTIFIISKYGDSGARGLAVTISVKCEKISTLSCENKIISFKEMNPPDNIKDTKSDIIFFERDVPGHSGKVQFESSSYEGYFLACEKERDLFKLILKKEDELGDRSIMFTVQNED
notes: recombinant with C-terminal hexahistidine tag in SPR and cell assays; also called h6-31; version 2.0 human DR-IL-18 variant
KD ratio: IL-18BP/IL-18Rα [4]: 490 | EC50 (read off the curve); HEK-Blue IL-18 SEAP reporter, OD 655 nM [5]: ~4 nM | IL-18 BP:Ra Dissociation Constant Ratio [6]: > 1.06e+06

B7: hH3 (ligand)
chain: RFGKLESRLSVIRNLNDQVLFIDQGNRPLFEDMTDSDCRDNAPRTIFIISTYKDSQPRGKAVTISVKCEKISTLSCENKIISFKEMNPPDNIKDTKSDIIFFQRDVPGHKHKMQFESSSYEGYFLACEKERDLFKLILKKEDELGDRSIMFTVQNED
KD ratio: IL-18BP/IL-18Rα [4]: > 239

B8: hCS3 (ligand)
chain: RFGKLESKLSVIRNLNDQVLFIDQGNRPLFEDMTDSDCRDNAPRTIFIISTYKDSQPRGKAVTISVKCEKISTLSCENKIISFKEMNPPDNIKDTKSDIIFFQRDVPGHKHKMQFESSSYEGYFLACEKERDLFKLILKKEDELGDRSIMFTVQNED
notes: recombinant with C-terminal hexahistidine tag in SPR and cell assays
KD ratio: IL-18BP/IL-18Rα [7]: 103 | IL-18 BP:Ra Dissociation Constant Ratio [6]: 4350 | KD ratio: IL-18BP/IL-18Rα [8]: 2.27

B9: hB9 (ligand)
chain: RFGKHESKLSVIRNLNDQVLFIDQGNRPLFEDMTDSDCRDNAPRTIFIISTYRDSQPRGKAVTISVKCEKISTLSCENKIISFKEMNPPDNIKDTKSDIIFFERNVPGHKYKMQFESSSYEGYFLACEKERDLFKLILKKEDELGDRSIMFTVQNED
KD ratio: IL-18BP/IL-18Rα [4]: > 157

B10: 6-27 (ligand)
chain: YFGKLESKLSVIRNLNDQVLFIDQGNRPLFEDMTDSDCRDNAPRTIFIISKYSDSRARGLAVTISVKCEKISTLSCENKIISFKEMNPPDNIKDTKSDIIFFARSVPGHGRKTQFESSSYEGYFLACEKERDLFKLILKKEDELGDRSIMFTVQNED
notes: recombinant with C-terminal hexahistidine tag in SPR and cell assays; also called h6-27; version 2.0 human DR-IL-18 variant
KD ratio: IL-18BP/IL-18Rα [4]: 480 | EC50 (read off the curve); HEK-Blue IL-18 SEAP reporter, OD 655 nM [5]: ~1 nM | IL-18 BP:Ra Dissociation Constant Ratio [6]: > 5.86e+06
